In patent US5866114A, “Crystallization of M-CSFα” (Chiron Corporation, priority 1995, dated 1999):
Changes are numbered by the printed parent chain. Names and notes keep the numbering of the source.

How the values were obtained:
NFS-60 cells = assay: M-CSF dependent NFS-60 bioassay (MTT readout, compared to M-CSF standard); format: cell-based
Description: Fractionated products were analyzed on reducing SDS-PAGE and stained with Coomassie, according to the method of Laemmli, Nature […] 227:680-685 (1970). Biological activity was determined using the M-CSF dependent NFS-60 bioassay (See Example 10 below). Antibody neutralization experiments were carried out by pre-incubating approximately 5,000 units of M-CSF dimer with varying dilutions of the neutralizing M-CSF 5H410 Mab (made to refolded E. coli CΔ150 M-CSFα dimer) prior to bioassay. (Halenbeck et al, Bio/Technology 7:710 (1989)
The purified mutein dimers were subjected to bioassay using NFS-60 cells which is an M-CSF dependent cell line which forms colonies in the presence of active M-CSF. Standards and purified mutein samples were serially diluted 1:2 in RPMI media (10% fetal bovine serum) in a 50 microliter volume in 96-well microtiter plates. 50 microliters NFS-60 cells (ATCC NO. CRL 1838), maintained in 4000U/ml M-CSF, washed 2×, and diluted to a concentration of 1×10^5 cell/ml, were added to each sample well. Plates were incubated at 37° C., 5% CO2 for 44 h. 5 mg/ml MTT dye was added to each sample and incubation continued for 4 h. 20% SDS was added to each sample. The plates were wrapped in foil and left overnight. The absorbance of each sample was read at 570 nm and compared to a standard of known M-CSF concentration.

[1] = system: cell surface M-CSF receptor (NFS60 cell M-CSF receptors); assay: Radioligand displacement of 125I-M-CSF from NFS-60 cell M-CSF receptors (NFS-60 receptor competition assay); format: binding; details: for IC50: 4° C., 20 hours, 300,000 NFS-60 cells, read-out: IC50 (concentration required to inhibit 50% of labeled M-CSF binding to the cells); for M-CSF receptor-binding ability: compared to parental M-CSFα; for fold decrease in binding affinity: relative to M-CSFα NΔ3CΔ158
Description: FIG. 7 illustrates the competitive binding of M-CSF and M-CSF muteins to NFS60 cell M-CSF receptors.
The purified heterodimer was submitted to the NFS60 cell based bioassay described in Example 8. The calculated specific activity was 2.9×10^6 U/mg which correlated to a 35-fold reduction as compared to the activity of the parental M-CSF heterodimer described in Example 10. The relative binding affinity to cell surface M-CSF receptor was measured by radioligand displacement in which the displacement of ^125 I-M-CSF from an M-CSF receptor by an M-CSF mutein was measured using methods well known in the art. In brief, the following were added in a final volume of 100 μl in each well of a 96-well cell culture plate: approximately 80,000 cpm of purified recombinant human M-CSF labeled with ^125 I (using Iodobeads as described by the manufacturer, Pierce, Rockford, Ill.), 300,000 NFS-60 cells that had been washed and then grown for 18 hours in growth medium minus the normal maintenance level of M-CSF, plus unlabeled M-CSF that had been serially diluted in the same medium. The plates were incubated at 4° C. for 20 hours and the cells were collected on glass-fiber filters. Maximum binding was measured in the absence of unlabeled M-CSF and non-specific binding was measured in the presence of 1000-fold greater concentration of unlabeled M-CSF (compared to labeled M-CSF). The concentration of M-CSF required to inhibit 50% of the labeled M-CSF binding to the cells (IC50) was used to determine differences in affinity. Results are expressed as percent displacement of radioactive M-CSF versus mutein concentration (FIG. 7).

[2] = Bioactivity after diethylpyrocarbonate (DEPC) modification of histidines; details: 1:100 DEPC:histidine ratio

B1: 158/221F heterodimer: one chain of short clone (amino acid 4 to 158) and one chain of long clone 221F (protein, UniProt P09603 33-554, looked up, variant C157S C159S)
Macrophage colony-stimulating …: EEVSEYCSHMIGSGHLQSLQRLIDSQMETSCQITFEFVDQEQLKDPVCYLKKAFLLVQDIMEDTMRFRDNTPNAIAIVQLQELSLRLKSCFTKDYEEHDKACVRTFYETPLQLLEKVKNVFNETKNLLDKDWNIFSKNCNNSFAECSSQDVVTKPDSNSLYPKAIPSSDPASVSPHQPLAPSMAPVAGLTWEDSEGTEGSSLLPGEQPLHTVDPGSAKQRPPRSTCQSFEPPETPVVKDSTIGGSPQPRPSVGAFNPGMEDILDSAMGTNWVPEEASGEASEIPVPQGTELSPSRPGGGSMQTEPARPSNFLSASSPLPASAKGQQPADVTGTALPRVGPVRPTGQDWNHTPQKTDHPSALLRDPPEPGSPRISSLRPQGLSNPSTLSAQPQLSRSHSSGSVLPLGELEGRRSTRDRRSPAEPEGGPASEGAARPLPRFNSVPLTDTGHERQSEGSFSPQLQESVFHLLVPSVILVLLAVGGLLFYRWRRRSHQEPQRADSPLEQPEGSPLTQDDRQVELPV
modifications: heterodimer short/long clone
notes: one chain of short clone (amino acid 4 to 158) and one chain of long clone 221F
NFS-60 cells; calculated using the peak fraction of preparative Phenyl-HPLC
  specific activity: 8.0×10^7 units/mg
NFS-60 cells; refolded dimers, SE-HPLC (72 hr of refolding) or Phenyl-HPLC fractions
  biological activity of heterodimer compared to the two homodimers: fully biologically active in vitro

B2: H9A, H15A: M-CSF NΔ3CΔ158 with His 9 and His 15 mutated to Ala, refolded dimer (pTAF172-2) (protein, UniProt P09603 33-554, looked up, variant H9A H15A)
Macrophage colony-stimulating …: B1 Macrophage colony-stimulating … with H9A, H15A, S157C, S159C
modifications: residues 4-158, dimer
[1]
  IC50: ~1000 nM
  M-CSF receptor-binding ability: greatly decreased
  fold decrease in binding affinity: 50,000 fold
NFS-60 cells; Example 10
  fold reduction in biological activity versus parental M-CSF NΔ3CΔ158: ~10,000 fold
NFS-60 cells; Example 10, purified refolded mutein dimers, same assay as parental reference
  specific activity: 7.6×10^3 U/mg

B3: M-CSFαNΔ3CΔ158 H9A, H15A/M-CSFβNΔ3CΔ221C157S, C159S heterodimer: one subunit of M-CSFα NΔ3CΔ158 H9A, H15A and one subunit of M-CSFβ NΔ3CΔ221 C157S, C159S (protein, UniProt P09603 33-554, looked up, variant H9A H15A C157S C159S)
Macrophage colony-stimulating …: B1 Macrophage colony-stimulating … with H9A, H15A
modifications: heterodimer of truncated α and β forms
[1]
  fold increase of IC50 compared to M-CSFα NΔ3CΔ158: 30 fold
  IC50: ~0.5 nM
NFS-60 cells; Example 12
  fold reduction in specific activity compared to parental M-CSF heterodimer: 35 fold
NFS-60 cells; Example 12, purified heterodimer
  calculated specific activity: 2.9×10^6 U/mg

B4: M-CSF: macrophage colony stimulating factor, form not specified, treated with DEPC to modify histidines (protein, UniProt P09603 33-554, looked up)
Macrophage colony-stimulating …: B1 Macrophage colony-stimulating … with S157C, S159C
modifications: DEPC-modified histidines
[2]
  bioactivity after DEPC modification of histidines: significantly reduced bioactivity

B5: Q20A, V78K: double mutant of M-CSF, solvent accessible residues in central portion of helices A and C (protein, UniProt P09603 33-554, looked up, variant Q20A V78K)
Macrophage colony-stimulating …: B1 Macrophage colony-stimulating … with Q20A, V78K, S157C, S159C
[1]
  IC50: ~0.1 nM
  M-CSF receptor-binding ability: decreased
  fold decrease in binding affinity: 5 fold
NFS-60 cells; Example 11
  fold lower specific biological activity than parental M-CSFα reference standard: 8-10 fold
  specific biological activity: 1.4×10^7 U/mg
